Laboratory results from PMC7067828, “FAM111A protects replication forks from protein obstacles via its trypsin-like domain”.

Experiments:
Strep-FAM111A = Strep-FAM111A (human, UniProt Q96PZ2 1-611); experiment: fluorescence polarization; EMSA: 25 mM Tris-HCl pH 7.5, 5 mM MgCl2, 10% glycerol, 20 ng/ul BSA, 1 mM DTT, 0.7 pmol DNA in 10 ul, on ice 1 h; FP: 10 mM HEPES-NaOH pH 7.5, 150 mM NaCl, 10 nM DNA; settings: protein: recombinant; tags: N-terminal tandem Strep; label: 5' 6-FAM; single strand
MBP-FAM111A 176-282 = MBP-FAM111A 176-282 (human, UniProt Q96PZ2 176-282); experiment: EMSA; 5 mM Mg2+; EMSA: 25 mM Tris-HCl pH 7.5, 5 mM MgCl2, 10% glycerol, 20 ng/ul BSA, 1 mM DTT, 0.7 pmol DNA in 10 ul, on ice 1 h; FP: 10 mM HEPES-NaOH pH 7.5, 150 mM NaCl, 10 nM DNA; settings: protein: recombinant; tags: N-terminal MBP; label: 5' IRDye700; single strand
Sequence of MBP-FAM111A 176-282 (Q96PZ2 176-282): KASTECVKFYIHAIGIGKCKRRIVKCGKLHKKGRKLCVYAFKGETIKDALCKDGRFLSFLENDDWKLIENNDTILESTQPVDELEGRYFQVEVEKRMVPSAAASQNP

GST-FAM111A-strep [1] = biological target: T1, GST-FAM111A-strep (human, UniProt Q96PZ2 1-611); experiment: as above; settings: protein: recombinant, tags: N-terminal GST, C-terminal tandem Strep
T1 sequence (Q96PZ2 whole entry): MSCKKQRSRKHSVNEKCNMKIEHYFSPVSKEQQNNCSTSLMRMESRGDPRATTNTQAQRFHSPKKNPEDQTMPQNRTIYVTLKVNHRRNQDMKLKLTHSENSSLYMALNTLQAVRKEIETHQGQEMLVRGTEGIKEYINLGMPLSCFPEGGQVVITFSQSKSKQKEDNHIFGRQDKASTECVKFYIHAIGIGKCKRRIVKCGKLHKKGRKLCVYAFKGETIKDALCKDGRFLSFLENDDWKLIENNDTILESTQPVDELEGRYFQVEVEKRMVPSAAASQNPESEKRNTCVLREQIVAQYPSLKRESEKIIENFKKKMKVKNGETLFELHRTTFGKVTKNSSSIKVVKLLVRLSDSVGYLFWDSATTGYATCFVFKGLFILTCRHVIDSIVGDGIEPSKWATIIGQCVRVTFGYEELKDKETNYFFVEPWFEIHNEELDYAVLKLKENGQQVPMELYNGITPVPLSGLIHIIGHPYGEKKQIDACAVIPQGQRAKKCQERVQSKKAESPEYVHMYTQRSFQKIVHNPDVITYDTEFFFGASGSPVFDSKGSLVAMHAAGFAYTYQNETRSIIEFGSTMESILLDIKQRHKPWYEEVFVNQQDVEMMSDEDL

MBP-FAM111A 1-282 = MBP-FAM111A 1-282 (human, UniProt Q96PZ2 1-282); experiment: as above; settings: protein: recombinant; tags: N-terminal MBP; label: 5' IRDye700; single strand
Sequence of MBP-FAM111A 1-282 (Q96PZ2 1-282): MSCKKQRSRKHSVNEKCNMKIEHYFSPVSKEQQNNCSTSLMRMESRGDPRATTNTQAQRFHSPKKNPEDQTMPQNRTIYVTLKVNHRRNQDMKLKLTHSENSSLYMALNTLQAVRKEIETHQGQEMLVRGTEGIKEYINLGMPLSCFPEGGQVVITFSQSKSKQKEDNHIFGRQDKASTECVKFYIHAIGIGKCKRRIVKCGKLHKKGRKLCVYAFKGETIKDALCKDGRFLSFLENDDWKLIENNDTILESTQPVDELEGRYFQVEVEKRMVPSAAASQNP

GST-FAM111A-strep [2] = biological target: T1, GST-FAM111A-strep; experiment: EMSA; 5 mM Mg2+; up to 450 nM protein; EMSA: 25 mM Tris-HCl pH 7.5, 5 mM MgCl2, 10% glycerol, 20 ng/ul BSA, 1 mM DTT, 0.7 pmol DNA in 10 ul, on ice 1 h; FP: 10 mM HEPES-NaOH pH 7.5, 150 mM NaCl, 10 nM DNA; settings: protein: recombinant; tags: N-terminal GST, C-terminal tandem Strep; label: 5' IRDye700 on strand 1; fork 1:2 1:3 2:4; both arms double-stranded

Sequence of Strep-FAM111A (Q96PZ2 whole entry): as the sequence (Q96PZ2 whole entry) above

Question: CGACGATGCTCCGGTACTCCAGTGTAGGCAT (ssDNA) [6-FAM-O1676 (31 nt)] was tested. Which Kd (Strep-FAM111A) did it give?
Answer: Its Kd is ~60 nM.

B1: ssDNA O3063 (75 nt) (ssDNA)
DNA: GTTTTCCCAGTCACGACGATGCTCCGGTACTCCAGTGTAGGCATATTACGAATTCTTGAGGCAGGCATGGTAGCT
Question: Does B1 bind (MBP-FAM111A 176-282)?
Answer: Result: binds

Question: Does B1 bind (GST-FAM111A-strep [1]; label: 5' IRDye700, single strand)?
Answer: Result: binds

Question: Does B1 bind (MBP-FAM111A 1-282)?
Answer: Result: binds

B2: Y fork O3063/O4787 (mixed)
DNA 1: B1 DNA
DNA 2: AGCTACCATGCCTGCCTCAAGAATTCGTAATATGCCTACACTGGACCGTACTTCGCCTAGTAGACTGCCTTCCCG
Question: Does B2 bind (GST-FAM111A-strep [1]; label: 5' IRDye700 on strand 1, fork 1:2, 45 bp duplex, two 30-nt ss arms)?
Answer: Result: binds

B3: dsY fork O3063/O4787/O3730/O3757 (dsDNA)
DNA 1: B1 DNA
DNA 2: B2 DNA 2
DNA 3: GTACCGGAGCATCGTCGTGACTGGGAAAAC
DNA 4: CGGGAAGGCAGTCTACTAGGCGAAGTACGG
Question: Does B3 bind (GST-FAM111A-strep [2])?
Answer: Result: no binding
